In patent publication US10344077 one finds Athena reading (relative luminescence units) data, which are given here for three molecules.

Where a chain is given by its changes, count along the chain named.

Assay [1] deals with T1, Centromere B (UniProt P07199).
T1 sequence (looked up): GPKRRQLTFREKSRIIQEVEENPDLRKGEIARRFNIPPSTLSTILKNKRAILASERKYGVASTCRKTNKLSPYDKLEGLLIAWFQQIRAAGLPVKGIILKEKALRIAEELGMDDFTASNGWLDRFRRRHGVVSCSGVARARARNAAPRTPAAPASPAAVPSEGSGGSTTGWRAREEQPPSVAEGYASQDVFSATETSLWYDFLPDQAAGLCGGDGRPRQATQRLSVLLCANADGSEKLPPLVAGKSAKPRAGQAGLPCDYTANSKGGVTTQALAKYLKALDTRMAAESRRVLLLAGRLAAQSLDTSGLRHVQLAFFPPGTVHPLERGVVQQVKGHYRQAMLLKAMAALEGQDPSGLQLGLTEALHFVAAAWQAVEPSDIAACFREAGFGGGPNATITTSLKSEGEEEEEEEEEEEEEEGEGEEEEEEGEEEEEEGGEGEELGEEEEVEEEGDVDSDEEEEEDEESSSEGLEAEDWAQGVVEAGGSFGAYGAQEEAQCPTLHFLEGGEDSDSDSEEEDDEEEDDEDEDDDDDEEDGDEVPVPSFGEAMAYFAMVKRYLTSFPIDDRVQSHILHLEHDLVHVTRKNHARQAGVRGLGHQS
Briefly: AtheNA, Ab 25 ug/ml.

The target in assay [2] is Histones. Kind of assay: AtheNA, Ab 25 ug/ml.
Assay [3] deals with T2, Jo-1 (UniProt P12081).
T2 sequence (looked up): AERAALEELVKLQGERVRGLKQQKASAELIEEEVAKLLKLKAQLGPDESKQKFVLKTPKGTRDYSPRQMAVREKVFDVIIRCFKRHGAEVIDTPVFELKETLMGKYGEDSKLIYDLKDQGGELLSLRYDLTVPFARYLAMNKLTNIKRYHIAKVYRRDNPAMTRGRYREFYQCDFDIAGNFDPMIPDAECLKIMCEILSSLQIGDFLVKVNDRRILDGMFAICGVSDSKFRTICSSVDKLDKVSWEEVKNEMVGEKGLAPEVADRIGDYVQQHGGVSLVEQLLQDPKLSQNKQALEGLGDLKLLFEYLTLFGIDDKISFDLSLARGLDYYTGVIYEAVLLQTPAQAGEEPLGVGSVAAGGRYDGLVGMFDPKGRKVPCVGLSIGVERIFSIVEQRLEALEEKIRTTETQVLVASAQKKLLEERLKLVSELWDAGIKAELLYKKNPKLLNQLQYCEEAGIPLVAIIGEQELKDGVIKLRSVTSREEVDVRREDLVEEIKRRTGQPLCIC
Briefly: AtheNA, Ab 25 ug/ml.

The target of assay [4] is RNP (ribonucleoprotein). Briefly: AtheNA, Ab 25 ug/ml.
Assay [5] addresses SSA. Briefly: AtheNA, Ab 25 ug/ml.
In assay [6] the target is Scl-70 (UniProt P11387). Briefly: AtheNA, Ab 25 ug/ml.
Chain of Scl-70 (P11387 2-765 limits assumed): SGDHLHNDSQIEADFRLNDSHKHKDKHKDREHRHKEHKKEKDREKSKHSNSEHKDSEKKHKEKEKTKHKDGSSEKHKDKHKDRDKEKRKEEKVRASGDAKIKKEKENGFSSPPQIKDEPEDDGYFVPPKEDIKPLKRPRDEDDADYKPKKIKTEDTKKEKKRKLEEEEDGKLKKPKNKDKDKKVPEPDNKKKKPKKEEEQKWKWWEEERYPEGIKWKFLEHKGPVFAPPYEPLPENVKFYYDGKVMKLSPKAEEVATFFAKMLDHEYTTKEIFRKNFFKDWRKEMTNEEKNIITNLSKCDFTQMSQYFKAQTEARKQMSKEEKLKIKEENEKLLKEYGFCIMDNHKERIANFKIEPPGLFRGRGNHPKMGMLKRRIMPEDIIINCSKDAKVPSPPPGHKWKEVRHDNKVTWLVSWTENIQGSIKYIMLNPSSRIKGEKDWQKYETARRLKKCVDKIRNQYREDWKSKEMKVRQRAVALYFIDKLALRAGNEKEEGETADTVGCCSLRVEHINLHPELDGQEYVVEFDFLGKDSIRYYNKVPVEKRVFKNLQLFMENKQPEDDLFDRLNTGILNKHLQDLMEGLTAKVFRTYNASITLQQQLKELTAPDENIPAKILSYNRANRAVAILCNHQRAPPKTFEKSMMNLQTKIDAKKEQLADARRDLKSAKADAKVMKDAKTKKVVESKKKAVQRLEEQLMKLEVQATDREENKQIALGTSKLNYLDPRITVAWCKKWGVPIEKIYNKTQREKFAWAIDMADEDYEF
Assay [7] addresses Sm (Smith antigen). Kind of assay: AtheNA, Ab 25 ug/ml.
Assay [8] concerns the target T1, Centromere B. Briefly: AtheNA, Ab 12.5 ug/ml.
Assay [9] addresses Histones. Briefly: AtheNA, Ab 12.5 ug/ml.
The target in assay [10] is T2, Jo-1. Briefly: AtheNA, Ab 12.5 ug/ml.
Assay [11] concerns the target RNP (ribonucleoprotein). Kind of assay: AtheNA, Ab 12.5 ug/ml.
Assay [12] concerns the target SSA. Kind of assay: AtheNA, Ab 12.5 ug/ml.
Assay [13] concerns the target Scl-70 (UniProt P11387). Kind of assay: AtheNA, Ab 12.5 ug/ml.
The target of assay [14] is Sm (Smith antigen). Briefly: AtheNA, Ab 12.5 ug/ml.
Assay [15] addresses T1, Centromere B. Briefly: AtheNA, Ab 6.25 ug/ml.
In assay [16] the target is Histones. Kind of assay: AtheNA, Ab 6.25 ug/ml.
The target in assay [17] is T2, Jo-1. Kind of assay: AtheNA, Ab 6.25 ug/ml.
For assay [18], the target named is RNP (ribonucleoprotein). Kind of assay: AtheNA, Ab 6.25 ug/ml.
Assay [19] deals with SSA. Briefly: AtheNA, Ab 6.25 ug/ml.
Assay [20] addresses Scl-70 (UniProt P11387). Kind of assay: AtheNA, Ab 6.25 ug/ml.
Assay [21] concerns the target Sm (Smith antigen). Kind of assay: AtheNA, Ab 6.25 ug/ml.
Substrate in the assay “AtheNA, Ab 25 ug/ml”: T3, SSB (UniProt P05455)
T3 sequence (looked up): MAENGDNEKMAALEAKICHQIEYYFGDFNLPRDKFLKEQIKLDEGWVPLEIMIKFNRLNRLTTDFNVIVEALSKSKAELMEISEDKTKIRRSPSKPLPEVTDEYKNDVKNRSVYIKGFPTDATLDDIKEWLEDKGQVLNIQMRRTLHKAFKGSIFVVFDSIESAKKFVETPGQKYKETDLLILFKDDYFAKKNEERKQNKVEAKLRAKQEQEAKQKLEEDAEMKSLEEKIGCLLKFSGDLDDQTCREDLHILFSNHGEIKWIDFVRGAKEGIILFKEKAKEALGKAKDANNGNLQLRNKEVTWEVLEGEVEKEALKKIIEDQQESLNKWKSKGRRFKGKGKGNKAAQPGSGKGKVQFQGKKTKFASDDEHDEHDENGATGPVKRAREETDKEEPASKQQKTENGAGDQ
Kind of assay: AtheNA, Ab 25 ug/ml.

Substrate in the assay “AtheNA, Ab 12.5 ug/ml”: T3, 
Kind of assay: AtheNA, Ab 12.5 ug/ml.

Substrate in the assay “AtheNA, Ab 6.25 ug/ml”: T3, 
Kind of assay: AtheNA, Ab 6.25 ug/ml.

B1: CH235_4A (antibody, from a related filing, V domains shown)
VH: QVQLVQSGAEVKKPGASVTVSCQASGYTFTNYYVHWVRQAPGQGLQLMGWIDPSWGRTNYAQNFQGRITMTRDTSTSTVYMEMRSLRSEDTAVYYCARNVATEGSLLHYDYWGQGTLVTVSA
VL: EIVLTQSPATLSVSPGERATLSCRASQSVRSNLAWYQQRPGQAPRLLIYGTSTRATGVPARFSGRGSGTEFTLAISSMQSEDFAVYLCLQYNNWWTFGQGTKVEIK
Consider B1, for which the Athena reading (relative luminescence units) with Centromere B [1] came out at 6; in the assay with Histones [2], 7; with Jo-1 [3] it was 4; with RNP (ribonucleoprotein) [4], 5; in the assay with SSA [5], 13; with Scl-70 [6] it was 4. The Athena reading (relative luminescence units) with Sm (Smith antigen) [7] is 7; with Centromere B [8] it was 5; in the assay with Histones [9], 5; with Jo-1 [10], 3; with RNP (ribonucleoprotein) [11], 6; in the assay with SSA [12], 13. The Athena reading (relative luminescence units) amounted to 2 in the assay with Scl-70 [13]; 8 in the assay with Sm (Smith antigen) [14]; 3 with Centromere B [15]; 5 in the assay with Histones [16]; 2 in the assay with Jo-1 [17]; 3 with RNP (ribonucleoprotein) [18]. The Athena reading (relative luminescence units) worked out at 12 with SSA [19]; 2 with Scl-70 [20]; 5 in the assay with Sm (Smith antigen) [21]; 5 in “AtheNA, Ab 25 ug/ml”; 5 in the assay “AtheNA, Ab 12.5 ug/ml”; 6 in “AtheNA, Ab 6.25 ug/ml”.

B2: CH240_4A/293i (antibody, from a related filing, V domains shown)
VH: QVQLVQSGTEVRKPGASVTISCKASGYTFNNFYVHWVRQAPGQGLECMGWIDPSVGRISYGQKFQGRVTMTRDRSTSTVYMGLSSLRSEDTAMYYCVRDVGTEGSLLHFDHWGQGTLVIVSA
VL: B1 VL with S26T, R39K, P40R, G50S, T51A, V58I, R65S, A74T, M78V, L87Y
Turning to B2, the Athena reading (relative luminescence units) was 24 with Centromere B [1]; 27 in the assay with Histones [2]; 11 in the assay with Jo-1 [3]; 11 with RNP (ribonucleoprotein) [4]; 16 with SSA [5]; 6 with Scl-70 [6]. Further, the Athena reading (relative luminescence units) in the assay with Sm (Smith antigen) [7] was determined as 22; with Centromere B [8], 15; with Histones [9], 18; with Jo-1 [10], 7; with RNP (ribonucleoprotein) [11], 8; with SSA [12] it was 14. Also, the Athena reading (relative luminescence units) in the assay with Scl-70 [13] amounted to 4; in the assay with Sm (Smith antigen) [14] it was 13; with Centromere B [15], 8; with Histones [16] it was 9; with Jo-1 [17], 5; with RNP (ribonucleoprotein) [18], 6. In addition, the Athena reading (relative luminescence units) with SSA [19] came to 12; in the assay with Scl-70 [20], 3; with Sm (Smith antigen) [21], 9; in the assay “AtheNA, Ab 25 ug/ml” it was 11; in the assay “AtheNA, Ab 12.5 ug/ml”, 5; in “AtheNA, Ab 6.25 ug/ml”, 5.

B3: CH241 (antibody, from a related filing, V domains shown)
VH: QVQLVQSGAAVKKPGASVRVSCKASGYTFTSSHIHWVRQAPGQGPEWMGMIDPSVGRPTTAGKFQGRVTMTRDRYTSTAYMDLSSLRSEDTAVYYCARSVETTGSLLYFDYWGQGTLITVSS
VL: EIVLTQSPATLSVSPGERATLSCRASQSVRSNIAWYQQKPGQAPRLLIHGASTRATGIPGRFSGSGSGPEFTLAISSVQSEDFAVYYCQQYNDWWTFGQGTKVEIK
As for B3, the Athena reading (relative luminescence units) was determined as 14 in the assay with Centromere B [1]; 20 with Histones [2]; 5 in the assay with Jo-1 [3]; 6 with RNP (ribonucleoprotein) [4]; 15 with SSA [5]; 4 with Scl-70 [6]. In addition, the Athena reading (relative luminescence units) turned out to be 11 in the assay with Sm (Smith antigen) [7]; 8 with Centromere B [8]; 13 with Histones [9]; 6 in the assay with Jo-1 [10]; 5 with RNP (ribonucleoprotein) [11]; 14 with SSA [12]. For the same molecule, the Athena reading (relative luminescence units) in the assay with Scl-70 [13] came to 3; in the assay with Sm (Smith antigen) [14] it was 7; with Centromere B [15], 6; with Histones [16], 9; with Jo-1 [17], 2; with RNP (ribonucleoprotein) [18] it was 3. Further, the Athena reading (relative luminescence units) with SSA [19] turned out to be 15; with Scl-70 [20] it was 1; with Sm (Smith antigen) [21] it was 4; in “AtheNA, Ab 25 ug/ml” it was 6; in “AtheNA, Ab 12.5 ug/ml”, 8; in the assay “AtheNA, Ab 6.25 ug/ml” it was 4.
